The text below walks through data of the Human Domainome abundance scans (Beltran et al. 2025).

± gives the uncertainty stated by the source.

B1: Pyruvate dehydrogenase protein X component, mitochondrial, residues 181 to 227; numbered along this chain, O00330 (parent)
chain: RFRLSPAARNILEKHSLDASQGTATGPRGIFTKEDALKLVQLKQTGK

Variants of B1 are the subject of the data set. The experiment in a line: abundance fitness (aPCA) (normalised: wild type 0, dead -1); higher = more abundant; growth selection in yeast, the domain comes from the species named. As to conditions: Homo sapiens.
As for RFRLSPAARNILETHSLDASQGTATGPRGIFTKEDALKLVQLKQTGK, the abundance fitness turned out to be 0.049 ± 0.05.
As for RFRLSPAARNILEWHSLDASQGTATGPRGIFTKEDALKLVQLKQTGK, the figure is -0.474 ± 0.064.
For the variant RFRLSPAARNILESHSLDASQGTATGPRGIFTKEDALKLVQLKQTGK, the abundance fitness was -0.279 ± 0.054.
As for RFRLSPAARNILEKHSLDLSQGTATGPRGIFTKEDALKLVQLKQTGK, the figure is -0.412 ± 0.053; as for RFRLSPAARNILEKHSLDPSQGTATGPRGIFTKEDALKLVQLKQTGK, 0.249 ± 0.06; as for RFRLSPAARNILEKHSLDRSQGTATGPRGIFTKEDALKLVQLKQTGK, -0.362 ± 0.058.
In the case of RFRLSPAARNILEKHSLDYSQGTATGPRGIFTKEDALKLVQLKQTGK, the abundance fitness is -0.236 ± 0.15.
As for RFRLSPAARNILEKHSLDKSQGTATGPRGIFTKEDALKLVQLKQTGK, the figure is -0.602 ± 0.058.
For the variant RFRLSPAARNILEKHSLDISQGTATGPRGIFTKEDALKLVQLKQTGK, the abundance fitness was -0.295 ± 0.16.
With RFRLSPAARNILEKHSLDSSQGTATGPRGIFTKEDALKLVQLKQTGK, the abundance fitness was -0.242 ± 0.066.
The same measure for RFRLSPAARNILEKHSLDMSQGTATGPRGIFTKEDALKLVQLKQTGK: -0.074 ± 0.049.
Turning to RFRLSPAARNILEKHSLDQSQGTATGPRGIFTKEDALKLVQLKQTGK, the abundance fitness is -0.343 ± 0.07.
As for RFRLSPAARNILEKHSLDWSQGTATGPRGIFTKEDALKLVQLKQTGK, the figure is -0.362 ± 0.044; as for RFRLSPAARNILEKHSLDCSQGTATGPRGIFTKEDALKLVQLKQTGK, -0.186 ± 0.074.
In the case of RFRLSPAARNILEKHSLDHSQGTATGPRGIFTKEDALKLVQLKQTGK, the abundance fitness was -0.323 ± 0.12.
With RFRLSPAARNILEKHSLDVSQGTATGPRGIFTKEDALKLVQLKQTGK, the abundance fitness was -0.227 ± 0.053.
The same measure for RFRLSPAARNILEKHSLDGSQGTATGPRGIFTKEDALKLVQLKQTGK: -0.136 ± 0.054; for RFRLSPAARNILEKHSLDTSQGTATGPRGIFTKEDALKLVQLKQTGK: -0.379 ± 0.048; for RFRLSPAARNILEKHSLDDSQGTATGPRGIFTKEDALKLVQLKQTGK: -0.355 ± 0.12.
The same measure for RFRLSPAARNILEKHSLDFSQGTATGPRGIFTKEDALKLVQLKQTGK: -0.59 ± 0.14; for RFRLSPAARNILEKHGLDASQGTATGPRGIFTKEDALKLVQLKQTGK: 0.244 ± 0.043.
For RFRLSPAARNILEKHNLDASQGTATGPRGIFTKEDALKLVQLKQTGK, the abundance fitness was 0.018 ± 0.087.
As for RFRLSPAARNILEKHQLDASQGTATGPRGIFTKEDALKLVQLKQTGK, the figure is 0.069 ± 0.085; as for RFRLSPAARNILEKHMLDASQGTATGPRGIFTKEDALKLVQLKQTGK, -0.708 ± 0.089.
Take RFRLSPAARNILEKHTLDASQGTATGPRGIFTKEDALKLVQLKQTGK: the abundance fitness is -0.109 ± 0.05.
With RFRLSPAARNILEKHYLDASQGTATGPRGIFTKEDALKLVQLKQTGK, the abundance fitness is -0.385 ± 0.066.
RFRLSPAARNILEKHILDASQGTATGPRGIFTKEDALKLVQLKQTGK: the abundance fitness was -0.894 ± 0.091.
As for RFRLSPAARNILEKHFLDASQGTATGPRGIFTKEDALKLVQLKQTGK, the figure is -0.416 ± 0.084; as for RFRLSPAARNILEKHCLDASQGTATGPRGIFTKEDALKLVQLKQTGK, -0.215 ± 0.08; as for RFRLSPAARNILEKHKLDASQGTATGPRGIFTKEDALKLVQLKQTGK, 0.061 ± 0.07.
Take RFRLSPAARNILEKHHLDASQGTATGPRGIFTKEDALKLVQLKQTGK: the abundance fitness was -0.026 ± 0.079.
The same measure for RFRLSPAARNILEKHLLDASQGTATGPRGIFTKEDALKLVQLKQTGK: -0.667 ± 0.047.
With RFRLSPAARNILEKHALDASQGTATGPRGIFTKEDALKLVQLKQTGK, the abundance fitness was -0.186 ± 0.063.
For RFRLSPAARNILEKHVLDASQGTATGPRGIFTKEDALKLVQLKQTGK, the abundance fitness was -0.613 ± 0.049.
As for RFRLSPAARNILEKHELDASQGTATGPRGIFTKEDALKLVQLKQTGK, the figure is 0.035 ± 0.051; as for RFRLSPAARNILEKHPLDASQGTATGPRGIFTKEDALKLVQLKQTGK, -0.281 ± 0.057; as for RFRLSPAARNILEKHDLDASQGTATGPRGIFTKEDALKLVQLKQTGK, 0.078 ± 0.065.
RFRLSPAARNILEKHWLDASQGTATGPRGIFTKEDALKLVQLKQTGK: the abundance fitness was -0.699 ± 0.051.
Regarding RFRLSPAARNILEKHSLMASQGTATGPRGIFTKEDALKLVQLKQTGK, the abundance fitness is -0.394 ± 0.058.
The same measure for RFRLSPAARNILEKHSLVASQGTATGPRGIFTKEDALKLVQLKQTGK: -0.625 ± 0.054; for RFRLSPAARNILEKHSLKASQGTATGPRGIFTKEDALKLVQLKQTGK: 0.086 ± 0.088.
As for RFRLSPAARNILEKHSLRASQGTATGPRGIFTKEDALKLVQLKQTGK, the figure is -0.707 ± 0.056.
The same measure for RFRLSPAARNILEKHSLCASQGTATGPRGIFTKEDALKLVQLKQTGK: -0.331 ± 0.048; for RFRLSPAARNILEKHSLIASQGTATGPRGIFTKEDALKLVQLKQTGK: -0.336 ± 0.1.
For RFRLSPAARNILEKHSLTASQGTATGPRGIFTKEDALKLVQLKQTGK, the abundance fitness was -0.256 ± 0.054.
As for RFRLSPAARNILEKHSLPASQGTATGPRGIFTKEDALKLVQLKQTGK, the figure is -0.815 ± 0.14; as for RFRLSPAARNILEKHSLSASQGTATGPRGIFTKEDALKLVQLKQTGK, -0.393 ± 0.058; as for RFRLSPAARNILEKHSLEASQGTATGPRGIFTKEDALKLVQLKQTGK, -0.815 ± 0.13.
As for RFRLSPAARNILEKHSLNASQGTATGPRGIFTKEDALKLVQLKQTGK, the figure is 0.028 ± 0.098; as for RFRLSPAARNILEKHSLGASQGTATGPRGIFTKEDALKLVQLKQTGK, -0.598 ± 0.05.
As for RFRLSPAARNILEKHSLQASQGTATGPRGIFTKEDALKLVQLKQTGK, the figure is -0.113 ± 0.067; as for RFRLSPAARNILEKHSLFASQGTATGPRGIFTKEDALKLVQLKQTGK, -0.92 ± 0.12.
For RFRLSPAARNILEKHSLAASQGTATGPRGIFTKEDALKLVQLKQTGK, the abundance fitness was -0.591 ± 0.11.
As for RFRLSPAARNILEKHSLYASQGTATGPRGIFTKEDALKLVQLKQTGK, the figure is -0.605 ± 0.14; as for RFRLSPAARNILEKHSLWASQGTATGPRGIFTKEDALKLVQLKQTGK, -1.06 ± 0.14.
